Six substances from patent US20250320281A1 can be followed below.

What all share (assay): cell-based or functional assay
The target in test [1] is HIV-1 Env of pseudovirus MGRM-AE-003 (clade CRF01_AE) (HIV-1).
In test [2] the target is HIV-1 Env of pseudovirus MGRM-AE-006 (clade CRF01_AE) (HIV-1).
Test [3] addresses aMLV envelope protein on pseudovirus.
Test [4] addresses HIV-1 Env of pseudovirus MGRM-G-015 (HIV-1, clade G isolate MGRM-G-015).
The target of test [5] is HIV-1 93IN905 envelope glycoprotein (Env) on pseudovirus (HIV-1).
Test [6] deals with HIV-1 Env of pseudovirus MGRM-G-024 (HIV-1, clade G isolate MGRM-G-024).
In test [7] the target is HIV-1 Env of isolate MGRM-D-013 (clade D pseudovirus) (HIV-1).
Test [8] deals with HIV-1 Env of isolate APV_17, clade B, on pseudovirus (HIV-1).
Test [9] addresses HIV-1 Env of isolate MGRM-D-008 (clade D pseudovirus) (HIV-1).
For test [10], the target named is HIV-1 Env of pseudovirus MGRM-F1-014 (HIV-1).
Test [11] addresses HIV-1 Env of pseudovirus MGRM-G-016 (HIV-1, clade G isolate MGRM-G-016).
Test [12] deals with HIV-1 Env of isolate QH0692.42 (Acute), clade B, on pseudovirus (HIV-1).
In test [13] the target is HIV-1 Env of isolate TRO.11 (Acute), clade B, on pseudovirus (HIV-1).
Test [14] has as its target HIV-1 Env of isolate MGRM-Chronic-B-004, clade B, on pseudovirus (HIV-1).

1443_C16 (PG16) (TCN-116) (antibody), sequence (VH): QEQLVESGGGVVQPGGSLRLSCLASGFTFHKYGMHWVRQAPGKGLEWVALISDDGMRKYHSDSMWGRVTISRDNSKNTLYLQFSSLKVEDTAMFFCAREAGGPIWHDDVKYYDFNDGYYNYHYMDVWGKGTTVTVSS
1443_C16 (PG16) (TCN-116) (antibody), sequence (VL): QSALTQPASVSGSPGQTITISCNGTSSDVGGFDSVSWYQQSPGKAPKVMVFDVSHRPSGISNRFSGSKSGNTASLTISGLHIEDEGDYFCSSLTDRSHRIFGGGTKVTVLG

One may read the IC50 as the concentration at which inhibition is half-maximal. Consider 2F5 (antibody), for which the values for the IC50 in [1] and in test [2] were 0.24 µg/mL and 0.18 µg/mL, respectively. Further, the IC50, pseudovirus neutralization in test [3] and in [5] was over 50 µg/mL each time. In addition, the IC50 (µg/ml), pseudovirus neutralization in test [4] was 0.43 µg/mL; in [6], 1.07 µg/mL; in test [7], 2.12 µg/mL; in test [8], 4.61 µg/mL; in [9], over 50 µg/mL; in test [10], 15.1 µg/mL. Further, the IC50 (µg/ml), pseudovirus neutralization in [11] was 16.8 µg/mL; in [12], 5.42 µg/mL; in test [13], over 50 µg/mL; in test [14], 2.41 µg/mL.
Turning to 2G12 (antibody), the IC50 in test [1] and in [2] was over 50 µg/mL throughout. In addition, the IC50, pseudovirus neutralization in test [3] and in [5] was over 50 µg/mL in each case. Also, the IC50 (µg/ml), pseudovirus neutralization in test [4], in [6], in [7], in test [8], in [9] and in [10] was over 50 µg/mL in each case. Further, the IC50 (µg/ml), pseudovirus neutralization in test [11] was over 50 µg/mL; in test [12] it was 4.39 µg/mL; in [13], 0.29 µg/mL; in test [14] it was 8.65 µg/mL.
4E10 (antibody): the IC50 was 0.34 µg/mL in test [1] and 0.23 µg/mL in test [2]. In addition, the IC50, pseudovirus neutralization in test [3] was over 50 µg/mL; in test [5], 1.55 µg/mL. The IC50 (µg/ml), pseudovirus neutralization in test [4] is 1.07 µg/mL; in [6] it was 1.57 µg/mL; in test [7], 5.38 µg/mL; in [8] it was 10.5 µg/mL; in test [9] it was 42.9 µg/mL; in [10], 7.36 µg/mL. Further, the IC50 (µg/ml), pseudovirus neutralization in test [11] was determined as 1.02 µg/mL; in test [12] it was 12.7 µg/mL; in [13], 1.39 µg/mL; in [14], 3.7 µg/mL.
Consider 1443_C16 (PG16) (TCN-116) (antibody), for which the IC50 in test [1] and in test [2] was 0.03 µg/mL in each case. In addition, the IC50, pseudovirus neutralization in [3] was over 50 µg/mL; in test [5], 0.102 µg/mL. Also, the IC50 (µg/ml), pseudovirus neutralization in test [4] was 5.33 µg/mL; in test [6], 0.01 µg/mL; in test [7], 0.11 µg/mL; in test [8], 24.8 µg/mL; in test [9] it was over 50 µg/mL; in test [10], 0.01 µg/mL. The IC50 (µg/ml), pseudovirus neutralization in test [11] is 11.3 µg/mL; in test [12] it was over 50 µg/mL; in [13], 0.22 µg/mL; in [14], 0.01 µg/mL.
On to 1495_C14 (PGC14) (antibody), for which the IC50 in test [1] and in test [2] was over 50 µg/mL each time. Also, the IC50, pseudovirus neutralization in test [3] and in test [5] was over 50 µg/mL throughout. Also, the IC50 (µg/ml), pseudovirus neutralization in [4], in test [6], in test [7], in [8], in test [9] and in test [10] was over 50 µg/mL in each case. Further, the IC50 (µg/ml), pseudovirus neutralization in test [11], in test [12], in test [13] and in test [14] was over 50 µg/mL throughout.
Take b12 (antibody): the IC50 in test [1] and in test [2] was over 50 µg/mL in each case. The IC50, pseudovirus neutralization in test [3] is over 50 µg/mL; in test [5], 34.1 µg/mL. The IC50 (µg/ml), pseudovirus neutralization in test [4] was over 50 µg/mL; in test [6], 2.38 µg/mL; in test [7], over 50 µg/mL; in [8], over 50 µg/mL; in [9], over 50 µg/mL; in [10] it was over 50 µg/mL. In addition, the IC50 (µg/ml), pseudovirus neutralization in [11] is over 50 µg/mL; in test [12], 0.73 µg/mL; in test [13], over 50 µg/mL; in test [14] it was 0.26 µg/mL.
